Here are results for 41 sequences from the nanobody polyreactivity screen of Harvey et al. (2022).

The data set can be described thus: yeast display, Sf9 membrane polyspecificity reagent, FACS + sequencing; frameworks hold sequencing errors. The procedure, abridged: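 Sorting gates, low and high (top ~1%), were placed on anti-HA fluorescence to track expression and on streptavidin fluorescence to track reagent binding. A clone's polyreactivity label is taken from the gate it came out of. The reagent was 10% biotinylated, detergent-solubilized Sf9 membrane, applied for 1 hour at 4 °C to galactose-induced yeast display cells.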
“QVQLVESGGGLVQAGGSHRLSCAASGRTFYYNAMGVYRQAPGKERELVAGITRSGSSTYYADSVKGRFTISRVNAKNTVYLQMNSLKPEDTAVYYCATRRSGYYSFYYWGQGTQVTVSS”: the “polyreactivity (PSR sort gate)” value is “high polyreactivity”. Under “QVQLVESGGGLVQAGGSHRLSCAASGSTFEYNDMGGNRQEQGKERELVAAISSGGDTNYADSVKGRFTISRDNAKNTVFLQMNSLKPEDTAVYYCAADDWSPYLCYYGYAGYYYCGQGTQVTVSS” stands “low polyreactivity”; under “QVQLVESGGGLVQAGGSHRLSCAASGSTFGDYAMGWYRQAPGKERELVAAISVRGGSTYYADSVKGRFTISRDNAKNTVYLQMNSLKPVVTAVYYCNKDLYRYPGYDYWGQGTQVTVSS”, “high polyreactivity”; under “QVQLVESGGGLVQAGGSHRLSCAASGSTFIDYAMGWYRQAPGKERELVAAITNGGNTKYADSVKGRFTISRDNAKNTVYLQMNSLKPEDTAVYYCAREPSIFTPSYDYWGQGTQVTVSS”, “low polyreactivity”.

In the case of “QVQLVESGGGLVQAGGSHRLSCAASGSTFRVYAMGGYRQAPGKERELVARISITGGTTRYADSVKGRFTISRDNAKNTVYLQMNSLKPEDTAVYYCNADYDWYYWYLYKYPFDYWGQGTQVTVSS”, the “polyreactivity (PSR sort gate)” value is recorded as “low polyreactivity”. Under “QVQLVESGGGLVQAGGSHRLSCAASGSTRYYMGWYRQAPGKEREFVARITWSGTRTYYADSVKGRFTISRDNAKNTVYLQMNSLKPEDTAVYYCNAGVVWGQGTQVTVSS” stands “high polyreactivity”. Under “QVQLVESGGGLVQAGGSHRLSCAASGYIFRYSTMGWYRQAPGKERELVAVITRGGSTYYADSVKGRFTISRDNAKNTVYLQMTSLNPEDTAVYYCAAVRTKVWRGPEMDYWGQCTQVTVSS” stands “high polyreactivity”. Under “QVQLVESGGGLVQAGGSHRLSCAAYGRTFGVYAMGWYRQAPGKERELVAAISSRGGSTYYADSVKGRFTISRDNAKNSVYLQMNSLKPEDTAFYYCAAPWYQGLDYWGQGTQVTVSS” stands “high polyreactivity”; under “QVQLVESGGGLVQAGGSHRLSCAAYGSTFFPNCMGWYRQAPGKERELVAAITSGGSTYADSVKGRFTISRDNAKNTVYLQMNSLKQEDTAFYYCAADSRQGFLLYGYWGQATQVTVSS”, “low polyreactivity”; under “QVQLVESGGGLVQAGGSHRLSCADSGFILAYYAMGWYRPAPGKERELVAAISIGSSTDYADSVKGRFTISRDNAKNTVYLQMNSLKPEDTAVYYCAARDYYYEYDYWGQGTQVTVSS”, “low polyreactivity”.

For the sequence “QVQLVESGGGLVQAGGSHRLSFAASGGIFRGYALGWNRQAPGKERELGATIRSSGRTNYADSVKGRFTIARDNAKNTVYLQMNCLKPDDTAVYYCNKRRWWQYDRWSDWVLGGDDYWGQGTQLTVSS”, the “polyreactivity (PSR sort gate)” value is “low polyreactivity”. Under “QVQLVESGGGLVQAGGSHRLSSAASGLTFGGNAMGWYRQAPGKERELVAGISSSGNTNYADSVKGRFTISRDNAKNTVYLQMNSLKPEDTAVYYCAADENITYPVYDMYDWGQGTQVTVSS” stands “low polyreactivity”; under “QVQLVESGGGLVQAGGSHRLSSAASGTTFYGNAMGWYRQAPGKERELVAAISQGGGRTYYADSVKGRFTISRDIAKNTVYLQMISLKPEDTAVYYCAADVWWYRLDFDYWGQGTQVTVSS”, “high polyreactivity”. Under “QVQLVESGGGLVQAGGSHRLTCAASGSTFFAYAIGCYRPAPGTERELVAAISSRGGRTYYADSVKGRFTISRDNAQNTVYLQMNSLKPEDTAVYYCAVGPGLAQSYDYWGQGTQVTVSS” stands “high polyreactivity”; under “QVQLVESGGGLVQAGGSHRVSCAASGSTFDRYTMGWYRQAPGTERELVAAISISGGSTYYADSVKGRFTISRDNAKNTVYVQMNSLKPEDTAVYYCAARLDTVTDYYYWGQGTQVNVSS”, “low polyreactivity”. Under “QVQLVESGGGLVQAGGSHSLRCAASGSIFYRYDRGWYRQAPGTARELVAAITRSGGSTYYADSVKGRFTISRDNAKNTVYLQMNSLKPEDTAVYFCNASIDRYRLLIFPRPYWKYAYWGQGTQVTVSS” stands “low polyreactivity”; under “QVQLVESGGGLVQAGGSIRLICAASGPIFSSYAIGCYRQAPGKERELVAAITSSGTSTYYADSVKGRFTISRDYAKNTVYVQMTSLKPEDTAVYYCAARRARTGDYWGQGTQVTLSS”, “high polyreactivity”; under “QVQLVESGGGLVQAGGSIRLIWAASGSTVPSYTMGWYRQAPGKERELVAAISGSGGSTYYADSVKGRFTISRDNAKNTVYLQMNSLKPEDTAVYSCAADYRLQLSYAFGDDYWGQGPQVTVSS”, “low polyreactivity”.

In the case of “QVQLVESGGGLVQAGGSIRLSCAASGITFGRNTMGWYRQAPAKERELVAAIDSGGNTYADSVKGRFTISRDNAKNTVYLQMNSLKPEDTAVYYCAVDGYYLYYDYDYWGQGTQVTVSS”, the “polyreactivity (PSR sort gate)” value is “low polyreactivity”.

For “QVQLVESGGGLVQAGGSIRLSCAASGRILYGNAMGWYRQAPGKEREFVAAITFRGGSTYYADSVKGRFTISRDNAKNTVYLQMNSLKPEDTAVYYCNARGHCGWGTSMYYWGQGTQVTVSS”, the “polyreactivity (PSR sort gate)” value is reported as “high polyreactivity”. Under “QVQLVESGGGLVQAGGSIRLSCAASGRTFGQNPMGWYRQAPGKERELVAVITRGGSTNYADSVKGRFTISRDNAKNTVYLQMNSLKPEDTAVYYCAADYTAYGYDYWGQGTQVTVSS” stands “low polyreactivity”; under “QVQLVESGGGLVQAGGSIRLSCAASGRTFYPNAMGWYRQAPGKERELVAVISSGGNTDYADSVKGRFTISRDNAKNTVYLQMYSLKPEDTAVYYCNTDTTVVSHYRSYWWGAGYDYWGQGTQVTVSS”, “low polyreactivity”.

Consider “QVQLVESGGGLVQAGGSIRLSCAASGSIFEVNAMGWYRQAPGKERELVAGISNADSTNYADSVKGRFTISRDNAKNTVYLQMNSLKPEDTAVYYCATDLYRDPPKDLLGPEYDYWGQGTQVTVSS”, for which the “polyreactivity (PSR sort gate)” value is recorded as “low polyreactivity”. Under “QVQLVESGGGLVQAGGSIRLSCAASGSIFLGYAMGSYRQATGKETELFAAISSGGTRTYYADSVKGRFTITRDNAKNTVYLQMNCLKPEDTAVYYCSARYIPIQYPSYRTWGGYSWGQGTQVTVSS” stands “high polyreactivity”; under “QVQLVESGGGLVQAGGSIRLSCAASGSTFFQYAMGWYRQAPGKERELVAAISSRGGRTYYADSVKGSFTISRDNAKNTVYLQMNSLKPEDTAVYYCAVDHLTRSGDGEYWGQGTQVTVSS”, “high polyreactivity”. Under “QVQLVESGGGLVQAGGSIRLSCAASGSTFKTYVMGWYRQAPGKERELVAAISFSDGTTYYADSVKGRFTISRDNAKNTVYLQMNSLKPEDTAVYYCAAEGYQSQYDYWGQGTQVTVSS” stands “high polyreactivity”; under “QVQLVESGGGLVQAGGSIRLSCAASGSTFYSYAMGWYRQATGKERELVAAISSGGSTNYADSVKGRFTISRDNAKNTVYLQMNSLKPEDTAVYYCAVDYPVIVYQRGYWGQGTQVTVSS”, “low polyreactivity”.

As to “QVQLVESGGGLVQAGGSIRLSCAASGYSFNGYAMGWYRQAPGKEREFVAAISWSGGSTYYADSVKGRFTISRDNAKNTVYLQMNSLKPEDTAVYYCAKRRGGGYDYWGQGTQVTVSS”, the “polyreactivity (PSR sort gate)” value is listed as “low polyreactivity”. Under “QVQLVESGGGLVQAGGSIRLSCDHSGRNLYRNSMGWYRQAPEKERELVARITSSGASTYYADSVKGRFTISRDNAKNTVTIQMNSLKQEYTAVYYCAAQYLSRRYGPYYTYNYRGQGTQVTVSS” stands “high polyreactivity”; under “QVQLVESGGGLVQAGGSIRLSCSASGNIFSDNAMGWYRQAPGKERELGAAITSGGSTNYADSVNGRFTISRDNAKNTVYLQMNSLKPEDTAVYYCAADRGFYPSLWDYDYWGQGTQVTVSS”, “low polyreactivity”. Under “QVQLVESGGGLVQAGGSIRLTCAASGGTFGRNAMGWYRQAPGKERELVATITRRGGSTYYADSVKGRFTISRDNAKTSVYLQMNSLKAEDTAVYYCAARDVYRGGLFDYWGQGTQVTVSS” stands “high polyreactivity”.

“QVQLVESGGGLVQAGGSLGISCAACGSIFSVNAMGWFRQAPGKERELVAGITISGGRTYYADSVKGRFTISRDNAKNTVYLQKNSLKPEDTAVYYCAAYVDPAYYYWGPGTQVTVSS”: the “polyreactivity (PSR sort gate)” value was “low polyreactivity”.

In the case of “QVQLVESGGGLVQAGGSLGLSCAASGFIFSSNAMGWYRQARGKERELVAAITSGGGRTYSADSVKRRFTISRDNAKNTVYLQKNSLKPEDTAVYYCNAEQWQSSEYGEWSKRDYWGQGTQVTVSS”, the “polyreactivity (PSR sort gate)” value is on record as “low polyreactivity”. Consider “QVQLVESGGGLVQAGGSLGLSCAASGFSFDRNAMGWYRQAPGKERGLVAAISSSGGRTYYPDSVKGRFTISRDYAKKTVYLQMNSLKPDDTAVYYCAAKLSRRYYYWGQGTQVTVSS”, for which the “polyreactivity (PSR sort gate)” value was “high polyreactivity”. Under “QVQLVESGGGLVQAGGSLGLSCAASGFTFTYYAMGWYRQAPGKERELVASISWRGGSTYADSVKGRFTISRDNAQNTVYLQMNSLTPEDTAVYYCAADGYSYGNYIYDYWGQGTQVTVSS” stands “low polyreactivity”.

“QVQLVESGGGLVQAGGSLGLSCAASGFTFYYYAMGWYRQAPGKERELVAIRFRGGNTYYADSVKGRFTISRDNAENTVYLQMNSLKPEDTAVYYCNADDLGSTYVDYDYWGQGTQVTVSS”: the “polyreactivity (PSR sort gate)” value is listed as “low polyreactivity”.

“QVQLVESGGGLVQAGGSLGLSCAASGSFFYQNAMGWYRQAPGKDREWVAAISRSGGSTYYADSVMGRFTISRDNAKISVDEQMNSLQPEDTPVYYCAARNSRQGSYSRDFWGQGTQVTVSS”: the “polyreactivity (PSR sort gate)” value is “high polyreactivity”. Under “QVQLVESGGGLVQAGGSLGLSCAASGSIFEPYVMGWYRPAPGKERELVAAISESGDTTYYADSVKGRFTISRDNAKNTVYLQRNSLKPEDTAVYYCNAEDPSIDGWWRVGEYDYWGQGTQVTVSS” stands “low polyreactivity”; under “QVQLVESGGGLVQAGGSLGLSCAASGSTFGPNAMGWYRQAPGKERELVARITDSGGSTYYADSVKGRFTISRDNAKNTVDLQMNSLKQDDTAVYYCAAEVYLLSRYYTPAYDYWGQGTLVTVSS”, “low polyreactivity”; under “QVQLVESGGGLVQAGGSLHLSCAASGRTFVWYAMGWYRQAPGKERELVAAISWSGTSTYYADSVKGRFTNSRDYAKYNVYLQMNSLKPEDTAVYYCYEKYYYWGQGTQVTVSS”, “high polyreactivity”. Under “QVQLVESGGGLVQAGGSLILSCAASYAMGWYRQAPGKERELVATIKSGGVSTYYADSVKGRFTISRDNAKNTVYLQMNCLKPEDTAVYDCAANASHSTSADYDYWGQGTQVTVSS” stands “low polyreactivity”.
